Residue numbers refer to the chain shown, from its start. Names may count otherwise.
T1: CNPY2 (UniProt Q9Y2B0)
T1 chain: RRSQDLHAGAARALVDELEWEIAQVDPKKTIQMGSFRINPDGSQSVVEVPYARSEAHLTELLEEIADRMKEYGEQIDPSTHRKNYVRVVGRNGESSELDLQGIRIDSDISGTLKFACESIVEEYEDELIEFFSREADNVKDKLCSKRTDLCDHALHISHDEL

T2: CNPY2 (UniProt Q9Y2B0)
T2 chain: T1 chain with A8C, A11C, A66C

B1: PERK LD (protein)
chain: AGRARGLPAPTAEAAFGLGAAAAPTSATRVPAAGAVAAAEVTVEDAEALPAAAGEQEPRGPEPDDETELRPRGRSLVIISTLDGRIAALDPENHGKKQWDLDVGSGSLVSSSLSKPEVFGNKMIIPSLDGALFQWDQDRESMETVPFTVESLLESSYKFGDDVVLVGGKSLTTYGLSAYSGKVRYICSALGCRQWDSDEMEQEEDILLLQRTQKTVRAVGPRSGNEKWNFSVGHFELRYIPDMETRAGFIESTFKPNENTEESKIISDVEEQEAAIMDIVIKVSVADWKVMAFSKKGGHLEWEYQFCTPIASAWLLKDGKVIPISLFDDTSYTSNDDVLEDEEDIVEAARGATENSVYLGMYRGQLYLQSSVRISEKFPSSPKALESVTNENAIIPLPTIKWKPLIHSPSRTPVLVGSDEFDKCLSNDKFSHEEYSNGALSILQYPYDNGYYLPYYKRERNKRSTQITVRFLDNPHYNKNIRKKD
B2: His-tagged CNPY2 wild type (natural protein, UniProt Q9QXT0 21-182, looked up)
chain: T1 chain with A8C, A11C, Q24R, I65V, A66C, G90S, I157R
B3: His-tagged CNPY2 3C-A mutant (C28A, C31A, C86A) (natural protein, UniProt Q9QXT0 21-182, looked up)
chain: T1 chain with Q24R, I65V, G90S, I157R
B4: 6X His/T7-tagged PERK luminal domain (PERK-LD) (domain or fragment, UniProt Q9Z2B5 29-510, looked up)
chain: VAPARSLLAPASETVFGLGAAAAPTSAARVPAVATAEVTVEDAEALPAAAGEPESRATEPDDDVELRPRGRSLVIISTLDGRIAALDAENDGKKQWDLDVGSGSLVSSSLSKPEVFGNKMIIPSLDGDLFQWDRDRESMEAVPFTVESLLESSYKFGDDVVLVGGKSLITYGLSAYSGKLRYICSALGCRRWDSDEMEEEEDILLLQRTQKTVRAVGPRSGSEKWNFSVGHFELRYIPDMETRAGFIESTFKPGGNKEDSKIISDVEEQEATMLDTVIKVSVADWKVMAFSRKGGRLEWEYQFCTPIASAWLVRDGKVIPISLFDDTSYTASEEALGDEEDIVEAARGATENSVYLGMYRGQLYLQSSVRVSEKFPTSPKALESVNGENAIIPLPTIKWKPLIHSPSRTPVLVGSDEFDKCLSNDKYSHEEYSNGALSILQYPYDNGYYLPYYKRERNKRSTQITVRFLDSPHYSKNIRKKD

Experiments:
Test in all cases: ITC
CNPY2 [1] = biological target: T1, CNPY2
CNPY2 [2] = biological target: T2, CNPY2
[3] = biological target: B4
[4] = biological target: B2
[5] = biological target: B3

Binder: B1
Kd (CNPY2 [1]): 7.5 µM | Kd (CNPY2 [2]): 13.2 µM

Binder: B2
Kd [3]: 13.2 µM

Binder: B3
Kd [3]: 7.5 µM

Binder: B4
stoichiometry N [4]: 1.16 | stoichiometry N [5]: 1.04

— article PMC6102046 (Nature structural & molecular biology, 2017)
